# In patent publication US20180273635A1 (Zymeworks, published 2018):
# Substitutions are numbered along the chain they refer to. In names and notes the source's numbering stands.
# B1: Variant 4431 (antibody, name in Kabat numbering, V domains shown)
# VH: EVQLVESGGGLVQPGGSLRLSCAASGFTFTDYTMDWVRQAPGKGLEWVADVNPNSGGSIYNQRFKGRFTLSVDRSKNTLYLQMNSLRAEDTAVYYCARNLGPSFYFDYWGQGTLVTVSS
# VL: DIQMTQSPSSLSASVGDRVTITCKASQDVSAGVAWYQQKPGKAPKLLIYSASYRYTGVPSRFSGSGSGTDFTLTISSLQPEDFATYYCQQYYIYPYTFGQGTKVEIK
# notes: also called literature pertuzumab variant
# B2: Variant 4435 (antibody, V domains shown)
# VH: B1 VH with G57A
# VL: B1 VL with A31I
# notes: as for B1
# B3: Variant 4436 (antibody, name in Kabat numbering, V domains shown)
# VH: B1 VH with F64V
# VL: B1 VL with A31I
# notes: as for B1
# B4: Variant 4433 (antibody, name in Kabat numbering, V domains shown)
# VH: B1 VH
# VL: B1 VL with A31I, Y96F
# notes: as for B1
# B5: Variant 4432 (antibody, name in Kabat numbering, V domains shown)
# VH: B1 VH
# VL: B1 VL with A31I, Y96A
# notes: as for B1
# B6: Variant 4434 (antibody, name in Kabat numbering, V domains shown)
# VH: B1 VH with T30A
# VL: B1 VL with A31I
# notes: as for B1
# B7: variant 10014 (antibody)
# heavy: EVQLVESGGGLVQPGGSLRLSCAASGFTFADYTMDWVRQAPGKGLEWVADVNPNSGGSIYNQRFKGRFTLSVDRSKNTLYLQMNSLRAEDTAVYYCARNLGPSFYFDYWGQGTLVTVSSASTKGPSVFPLAPSSKSTSGGTAALGCLVKDYFPEPVTVSWNSGALTSGVHTFPAVLQSSGLYSLSSVVTVPSSSLGTQTYICNVNHKPSNTKVDKKVEPKSCDKTHTCPPCPAPELLGGPSVFLFPPKPKDTLMISRTPEVTCVVVDVSHEDPEVKFNWYVDGVEVHNAKTKPREEQYNSTYRVVSVLTVLHQDWLNGKEYKCKVSNKALPAPIEKTISKAKGQPREPQVYVYPPSRDELTKNQVSLTCLVKGFYPSDIAVEWESNGQPENNYKTTPPVLDSDGSFALVSKLTVDKSRWQQGNVFSCSVMHEALHNHYTQKSLSLSPG
# light: not shown
# Fc: not shown
# notes: OA format; combines the mutations of 12610 and 12611; also called v10014
# B8: variant 12611 (antibody, human IgG1, kappa)
# heavy: B7 heavy with A30T
# light: not shown
# chain: not shown
# notes: OA pertuzumab variant, LC Y96A (Kabat); also called v12611
# B9: variant 12610 (antibody, human IgG1, kappa)
# heavy: B7 heavy
# light: not shown
# chain: not shown
# notes: OA pertuzumab variant, HC T30A (Kabat); also called v12610
# B10: variant 12533 (antibody, human IgG1, kappa)
# heavy: B7 heavy with A30T
# light: DIQMTQSPSSLSASVGDRVTITCKASQDVSIGVAWYQQKPGKAPKLLIYSASYRYTGVPSRFSGSGSGTDFTLTISSLQPEDFATYYCQQYYIYPAAFGQGTKVEIKRTVAAPSVFIFPPSDEQLKSGTASVVCLLNNFYPREAKVQWKVDNALQSGNSQESVTEQDSKDSTYSLSSTLTLSKADYEKHKVYACEVTHQGLSSPVTKSFNRGEC
# chain: not shown
# notes: also called v12533
# B11: variant 12529 (antibody, human IgG1, kappa)
# heavy: B7 heavy with A30T
# light: not shown
# chain: not shown
# notes: also called v12529
# B12: variant 12534 (antibody, human IgG1, kappa)
# heavy: B7 heavy with F64V
# light: not shown
# chain: not shown
# notes: also called v12534
# Target: T1, Recombinant human HER2 (human, UniProt P04626 23-652)
# T1 construct: extracellular domain; Analyte of the SPR assays; also called HER2 ECD; ECD2 of HER2
# Assay: SPR, Ka ratio to WT pertuzumab
# Method: (§1) The affinity towards HER2 ECD of the samples was measured by SPR on a Biacore T200 as follows. Between 2000 and 4000 RU of anti-human Fc injected at concentration between 5 and 10 μg/ml was immobilized on a CM5 chip using standard amine coupling. Antigen-binding constructs were captured on the anti-human Fc (injected at concentration at 0.51 microg/mL in PBST, 1 min at 10 microl/min) at response levels ranging from 120-270 RU. […] HER2 dilutions were analyzed in duplicates. Sensograms were fit globally to a 1: 1 Langmuir binding model, using the software provided with the Biacore T200. All experiments were conducted at 25° C.
row,"SPR Ka, mut/Ka, WT",Binder
1,3.9 fold,B1
2,0.9 fold,B2
3,2.4 fold,B3
4,1.3 fold,B4
5,1.7 fold,B5
6,3.3 fold,B6

# Target: T2, Recombinant human HER2 (human, UniProt P04626 23-652)
# T2 construct: extracellular domain; analyte of the SPR assays; also called HER2 ECD; ECD2 of HER2
# Assay: SPR, pre-SEC; ratio to WT v10013
# Method: as §1
# (§2) The affinity of antigen-binding constructs in OA format was determined by SPR following protein A purification. […] Antigen-binding constructs in FSA format were purified by protein A affinity and SEC prior to assessment of affinity by SPR.
row,"Ka, mut/Ka, WT",Binder
1,7.9,B7
2,1.8,B8
3,3.9,B9
4,3.2,B10
5,2.1,B11
6,8.3,B12

# Target: T2, Recombinant human HER2
# Assay: SPR, post-SEC; ratio to WT v10013
# Method: as §1, §2
row,"Ka, mut/Ka, WT",Binder
1,8,B7
2,1.8,B8
3,4.5,B9
4,2.9,B10
5,2.3,B11
6,7.4,B12

# Target: T1, Recombinant human HER2
# Assay: SPR as in Example 3, average of three independent runs
# Method: as §1
row,Kd,Binder
1,5 nM,B1
2,15 nM,B2
3,5.7 nM,B3
4,10 nM,B4
5,7.7 nM,B5
6,4 nM,B6

# Target: T2, Recombinant human HER2
# Assay: SPR, variant captured on anti-human Fc, HER2 flowed, 25 C, pre-SEC
# Method: as §1
row,Kd,Binder
1,2.5 nM,B7
2,11 nM,B8
3,5.1 nM,B9
4,6.2 nM,B10
5,9.2 nM,B11
6,2.4 nM,B12

# Target: T2, Recombinant human HER2
# Assay: SPR, variant captured on anti-human Fc, HER2 flowed, 25 C, post-SEC
# Method: as §1, §2
row,Kd,Binder
1,2.6 nM,B7
2,11 nM,B8
3,4.6 nM,B9
4,7.2 nM,B10
5,9 nM,B11
6,2.8 nM,B12
